# Source: the DeepSol protein solubility set
# Experiment: soluble on expression in E. coli; label from the status in PepcDB or PDB records
row,Sequence,soluble on expression in E. coli
1,MSLHQRILSEVEGHILSGDWPPGYRIPFEHELTEQYGCSRMTVNKALSELVKRGLIERRRKSGSYVSFPQVQSAVMEIHDVKREVQSLGLDYAYRLGERAVRKMRAGDEGRIDLPVSSRLLDVTCRHFAGGRVFCLEERVINLSAVPEAETETFETAAPGSWLLGKVPWSTAEHRIRAVAASRPTAQALEIAVGAACLVIERRTWSGGVPVTSVLLTYPGDRHELVAEFAPSAPA,not soluble
2,MSLHRLQKVVRHIAQTEIMPRFLNTPSRRKEDGSMLSEADIAAQTAFAAALPLLIDCPMLGEEMSRQEQSALWEQYSGEKGLWIVDPIDGTNNFVNGLPHFAVSVAFVRNGRAELGVIYNPVSGECFYAERGQGAFLNGTRLPLRLVDKKLNEAIAGVEIKYLRSGKLSSRMSTLAPFGTIRSMGSSTLDWCYLACGRYDVYVHGGQKLWDYAAGALIFEEAGGRLTTLEGDGFWSGEHVFKRSVVAALEPKLFERWVGWIRENQEGHHHHHH,soluble
3,MSLHSTPAPVASPLPSALDEAARLAVLHGLCLLDSPPDPVFDTIAAMAARMLGTEIALVSLVDEHRQWFKARVGLEAPETPRKHAFCAHALRSDDVLVIPDALLDPRFCNNPLVLGAPHIRFYAGAPLKLRDGHTIGTLCVIGTSPRAGLDAEQRIQLEGLRDLAVLRVENLRSSTYRNGPTGLPNRARFSEDLDAVLLQRTADSAATAIAVDLCGSDYFRDMVKALGWDYADGYVALAYKRLISKLPAGTALYRLDTTTFAFMVTTADPLRLSALCSKISKGFVAPLEHQGIPHTAVASIGAVLLETSYGAADTLRSLTTSVDVAREHCLTWSLYEREGHHHHHH,soluble
4,MSLHTPLEQQEIRYRKGDIIELTITDHAEKDKCFGKTTEGMGVMVSGILAPGDRVSAQIYKVKSRYLEARAIEVLEASPDRVEPVCPVFGSCGGCKWMHVSYEAQLRYKHKKVTDSLEHIGGFESPDVRPVLAAPDALHYRNKVEFSCSNMRYLLQSEIDSDQLAKPKTFALGFHAPGNFEKVLDLDTCYLAKECMNRVLNVLRDFAIERGLEPYAAKAHEGYLRNLMLRYSERHEQLMVNIVTSWYDKALMQALKERLEAAMPEQQMTLLNNVTTRKNTVATGEQEYVISGDGYVTERLGDLDFRISANSFFQTNTRQAETLYDQIIAVGGITPEDTVYDLYCGTGTITLYLARHCKQAIGIEVVESAVKDAEMNAELNGLSNTVFFQADLKNFHAMQEALEPYAKPRIIVTDPPRAGMHPKALDTMLKLQPERIVYVSCNPDNLARDGKEIAARGYRMTSAQPVDMFPQTNHIETVACFERAEGHHHHHH,soluble
5,MSLIAVKPKKGHLLVAEPSITGDLSFNRSVVLLADHNCEGSVGFILNKPLGYTINDLIPEISARFKVYNGGPIEQDNLYFIHNIPQLIPNSIEIAEGIYWGGCFDSTRDLINQGKITQNNIRFFLGYSGWDAAQLQEELESNSWIISENNLHNKIIGKSSTDLWREKIKEQGGDYLIWSNAPENPILNEGHHHHHH,soluble
6,MSLIDRTHELPLTQQCRILRLARSSMYYTPREVSAHDLALMRRMDELHLEHPFAGARMLRDLLRAEGHAIGRKHVGTLMRRMGIEALYRKPNTSRRRRGDEIYPYLLRDLKIERPNQAWAADITYIPMRKGFVYLFAIIDWSSRRVLAWRLSNTLTTDFCLDAVREALHRYGRPEIFNTDQGCQFTSTDFTDLLKDNGIQISMDGKGCWRDNVFVERLWKSVKYEEVYLKAYDSVAEAKAHLGAYLRFYNERRPHRAHDGRTPDQAYFGALRDETPLAAEGHHHHHH,not soluble
7,MSLIEENLKQKIHDKFVAAKKNGHLKVTHAESKKLKDPQTTTQYWVTFAPSLALKPDANKNSDSKAEDPFANPDEELVVTEDLNGDGEYKLLLNKFPVVPEHSLLVTSEFKDQRSALTPSDLMTAYNVLCSLQGDKDDDVTCERYLVFYNCGPHSGSSQDHKHLQIMQMPEKFIPFQDVLCNGKDHFLPTFNAEPLQDDKVSFAHFVLPLPESSDQVDEDLLAMCYVSLMQRALTFFQDWTNESPELTKSYNVLLTKKWICVVPRSHAKSGPPLMLNINSTGYCGMILVKDREKLENLTEDPHLVDKSLLQCGFPNTAGQKPTEYHYEGHHHHHH,soluble
8,MSLIEFNKKTNTLEQVQYKYTLQDVSEPNLYRDIFSYDEIPKCTFNHRKVPMAPPDEIWITDTTFRDGQQSRAPYTVEQIVHLYDLLHKLGGPKGIIRQCEFFLYSDRDKQAVYKCLERGYKYPEVTSWIRATKSDFQLAKDMGMKESGILVSCSDYHIFKKLNMTRKQALEHYMSIVKSAIEVGIRPRCHFEDITRADFYGFVVPFAIELRKLMEESGVPIKIRACDTLGYGVSYPGAALPRSVPGIIYGLRHYAGFPSELIEWHGHNDFYKAVCNAATAWLYGASAVNCSLLGIGERTGNTPLEAMVIEYAQLRGTTDSMDTTVITEIAEYYEKELGYQIPPRTPFVGKHFNVTQAGIHADGLLKDEEIYNIFDTAKLLNRPVGVAINQTSGLAGIAHWINSHFGLEGAKRIDKRDERIVKIKEWVDEQYKAGRVTSIGDDELEEVIRKLAPEIFDLALEGHHHHHH,soluble
9,MSLIENLWRGICIISASEDAFSAGETIKEKLKSFEIPVVHYRYKDAEIETIWKCYDAIVFVMALEGATRIVCKYAKSKTEDPAIVCIDDKINYVIPLLGGHWGANDIARELSVILNSTPIITTAAEIKGKLSIERIANILIAKIINPENIVKINAALLRDESICIDGIDVNVNFPENIKVNSEECSYIISLRGDKEYKDKIVVWLKPLKISIGIGSKKDVKMEEIRDGIYKVLERLNLKRERIGIIASIREEVKKIADEFNVRFRLVNEEEINNFMNPCLTPPSKTLIEVGLKGVAEISALIAGGRNSKLILRKIAISRNSTIAVATYEGHHHHHH,soluble
10,MSLIGKHFIITGATSGLGFAITNELLQRGAHVTILARNIDKFNRIKENYFKPEHINVIKCDLMQRKDIESLQKFLNTPINGFIYSSGVGYFKSISEHSTREVVETYEVNLTNFNLLYKVIQPQLVKAAYIVGISSQAALVSQANAAHYGASKAGFSAVLNALRLEQPELKVLNVQPGPIDTPFQKNADPTLKYFKNYRHMMIQPQQLAKQIVEGIILNKIEINQPSWMQEGHHHHHH,not soluble
11,MSLIIRLNFITKYKVDMKRSHLSLIACLLASTQAYALSTDREQPVYIDSDSQQLDMKSNRVTFLGDVKLKQGSININADKLIVIRNAENGKIEEIEGYGNVATFSQLTDEGKTLYGEAKELYYKVRDDELVMINKAMLSQDDSEIRGSKIRYKISLQKLIADSDGKGRVSTVLQPQAIQEEGHHHHHH,soluble
12,MSLIPVVLSGGAGTRLWPVSREGQPKPFMRLPDGQTLLGKTYRRAAGLLAGHGEIVTVTNREHYFQSKDQFHAARLGRHRGHFILEPTGRNTAPAIAVAALGLQAEHGDAAVLVVMPADHLIRNEEAFREAVGHAARLAVAGHLVTFGVVPDAAETGFGYIELGDRLDEQGAAKVRRFVEKPDEETRRRYVESGGFLWNSGMFCFTASTLVDELAQHAPALLEQARACLAASAAVKMADGIQHELAGEGFAALPDISIDYALMERSARVAVVPAAFDWSDIGSWGAMSALLDADAEGNRGSGDTLFVDTRNTFVQSDGRLVATVGVDDLVVVDTSDALLIARADRVQEVRRVVQRLKDEREGHHHHHH,soluble
13,MSLIRSKYAFLQKLTRDLKMKSINIGEELEGATPPSVFIGSWNYPKVYAGPMIAPVQEEVEIFDSPERWIPERKTQEEIIDYRLNLVRGKQLVGVRDLDNHLVEKLQEISLSSGAIESEAQFRRKPRGLFFSEEQTPHGPSAVLENFEIENVKWDRELERAYHDTDLRAREAIVELHRKGTPFSAVQKALSVGALGEGKRRKLVPTRWSITACDSTLADHFLERVLEYEPIDTFRVHEFESLKNHYLILLTPSEWQYEWMEAFMKRDGRAMIFSDHETGKGKREYSRVGGCYYSAKMAVLDALDREEKQAGAIILREAYPGYVPLGVFNVRENVKNAMDTEPTMFNDLRGALEFIDSKLKLGLEAFRVRSNLLKELEVSRQTTLDSFFREGHHHHHH,not soluble
14,MSLIRWCFTMKLAVIGGGDLQDSNHSPINERLIELTNKQYPKVLFIPTASHDDESYIKLFLDTFEKQLHCDVQILGIIADTPSKYEIDEMIQSADLIYLGGGNYIQMVTEWKEHKLDEKLLLALEQGTLIAGYSAGAMCWFTSSIRSDYEGSGYIESNGWGIVNKRFCPHYNQLNRMNAFHSFLQNHQGNIEGIALEDNCALYITEESFEIIGEPEKAWEFYMSDNKLIRQHFDITLKSYLEGHHHHHH,not soluble
15,MSLITCSKCSRRAVIFQRHANRHLCKRHFIEDFERRVKLAVKKYDMIQKGDRIAIALSGGKDSVTLAFVLNKLYGFRSDLEFFAITIDEGIAGYRPPTVEIARKVTEQLGMEHLVVSFEENFGMTLDEMVKRGDKKPCTYCGVFRKYLLNRTAREMGATKLATGHNLDDETQTILLNFLNADMERMARLVPQRVQEGLVVRIKPFRYVYEKEVVVYGFLHELPMDFDECPYSHFPVRAAVRDFLYDFENKYPGRKFSVMSSFEKLIPCLKEIYPQIDLNRCERCGEPTPRRICQACKLLEELRGVDEGHHHHHH,not soluble
16,MSLITIGITGGIGSGKSVVSRILLTLGIPVYDSDSRAKWLNDHSPVVRQALTGLIGSDLYENGILRRDRLAAAIFSSGDLLEQVNGIIHPEVKKDFCQWRSECESDLCAIESAILFSSGFNSLCDTVIRVDAPEKIRQERAMARDGSSAETMRQRMLSQEREQSLAKAGADHTVLNAPPHLLVPQVVRIIETVRTKRPNPPDEGHHHHHH,soluble
17,MSLKAKIKELENNLERLRSDLQSKIQEIESIRSCKDSQLKWAQNTIDDTEMKMKSLLTELSNKETTIEKLSSEIENLDKELRKTKFQYKFLDQNSDASTLEPTLRKELEQIQVQLKDANSQIQAYEEIISSNENALIELKNELAKTKENYDAKIELEKKEKWAREEDLSRLRGELGEIRALQPKLKEGALHFVQQSEKLRNEVERIQKMIEKIEKMSTIVQLCKKKEMSQYQSTMKENKDLSELVIRLEKDAADCQAELTKTKSSLYSAQDLLDKHERKWMEEKADYERELISNIEQTESLREGHHHHHH,soluble
18,MSLKAVIFDMDGVLIDSEPLHLDYAFKLFKELNITMTPNEYSKFIGTTSLYMWSNIKDTYNLENTVESLINKERNGFFEFLSSPNTNIKPIDHIPELLGALKENNFKTAVASSSPMRVIKYIINNFELAKQFNELVTGDYVERSKPNPDIFLYAAKKLDVSPEQCVVIEDSHNGVLAAKNAGMKCIGFKNPNSGNQDLSKADTIIHSFNEIDILNEGHHHHHH,soluble
19,MSLKDMSYQAVMGRNNEIMKNAIGLDYSSFEQEGIGFDYEKMMSETGYTLQDIEAIQSQYAVGNTPLIELKNLTKLARKCAKEGKGARIFVKDEAMNASGSFKARRAATAVYHAKQMGYKGVIAATSGNYGAAVASQAAMQGLKCIIVQECYDSNGVGQPEIIEKARKCEAYGAEVVQLTVGPELFYTFLVLLEETGYFNASLYSPFGIAGVETLGYELAIQFREKYKKDPDIVVCTNAGGGNLTGTARGLIKAGSINTKVVGASVDLKGLHMASDNQFNKKSFTTGHTGFGIPYCTWPDRSDVPRSAARPLRYMDRYVLVKQGEVFYTTELLAQLEGIERGPAGNTSLAAAFSLAQELDEDKAIVVQETEYTGAGKHICPQLTFARENGIDIKFGNPREEIAGVNLILPERPELLKCVDIDMNKIRNSFIKNCISNNHIDNIDKLSNRDIEFLMEEVKSSRDFVVDVLNNLEGHHHHHH,not soluble
20,MSLKFMSRFTFKQFHINQNSCAMKVGTDGILLGAWADVKHCKNILDMGCGTGLLALMLAQRTEENCQIQAVELDPIAAKQAQENINNSVWKNRIQLTQVDIQHFLQTTEQTFDLIVANPPYFEQGIACKNEERELARYTKQSHLNWLEWAATRLSENGRISFVLPYEAGKTLTKSTALFCIKQTNVITKIGKTPQRMLLTFAKQPEVLMQDQLVIYDADNQYTEAFIELTKDFYLKEGHHHHHH,soluble
